In patent US20140322220A1 (Bayer, published 2014):

T1: hFGFR2α-Fc (IIIb) (human, UniProt P21802 22-377, biotinylated with biotin-LC-NHS)
T1 construct: Bought, R&D Systems 663-FR, soluble Fc fusion
T1 chain: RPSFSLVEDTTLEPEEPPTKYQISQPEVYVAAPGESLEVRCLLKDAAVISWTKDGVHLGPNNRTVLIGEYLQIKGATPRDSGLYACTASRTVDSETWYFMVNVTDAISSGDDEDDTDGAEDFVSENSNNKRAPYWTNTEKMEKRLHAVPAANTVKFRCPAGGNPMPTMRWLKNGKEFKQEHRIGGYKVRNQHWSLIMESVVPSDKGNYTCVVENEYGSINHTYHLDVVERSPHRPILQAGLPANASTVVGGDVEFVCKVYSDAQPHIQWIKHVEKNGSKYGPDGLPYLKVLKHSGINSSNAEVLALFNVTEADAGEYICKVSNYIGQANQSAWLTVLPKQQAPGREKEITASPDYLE

T2: hFGFR2β-Fc (IIIb) (human, UniProt P21802 22-377, biotinylated with biotin-LC-NHS)
T2 construct: also called FGFR2-2β Fc (IIIb)
T2 chain: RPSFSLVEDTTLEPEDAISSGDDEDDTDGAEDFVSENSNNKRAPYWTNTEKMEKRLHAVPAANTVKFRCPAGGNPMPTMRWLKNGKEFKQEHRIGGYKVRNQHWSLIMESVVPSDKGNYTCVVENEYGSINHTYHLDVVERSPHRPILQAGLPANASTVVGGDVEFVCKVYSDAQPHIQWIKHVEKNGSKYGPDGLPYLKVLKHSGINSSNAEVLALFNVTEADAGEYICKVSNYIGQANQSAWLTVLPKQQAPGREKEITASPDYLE

T3: hFGFR4-Fc (human, UniProt P22455 22-369, biotinylated with biotin-LC-NHS)
T3 construct: Bought, R&D Systems, printed Cat. No. 685-MF
T3 sequence (looked up): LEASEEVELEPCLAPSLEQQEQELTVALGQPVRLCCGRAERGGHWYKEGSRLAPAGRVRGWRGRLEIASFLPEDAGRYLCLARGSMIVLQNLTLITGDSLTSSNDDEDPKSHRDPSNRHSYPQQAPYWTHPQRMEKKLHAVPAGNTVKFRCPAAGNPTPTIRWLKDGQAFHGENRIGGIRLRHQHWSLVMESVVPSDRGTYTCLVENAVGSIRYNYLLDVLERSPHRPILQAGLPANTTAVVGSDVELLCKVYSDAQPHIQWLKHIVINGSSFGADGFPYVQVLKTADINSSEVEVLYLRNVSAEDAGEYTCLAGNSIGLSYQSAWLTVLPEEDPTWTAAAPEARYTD

T4: hFGFR1β-Fc (IIIc) (human, UniProt P11362-14 22-285, limits assumed, biotinylated with biotin-LC-NHS)
T4 construct: Bought, R&D Systems 661-FR
T4 sequence (looked up): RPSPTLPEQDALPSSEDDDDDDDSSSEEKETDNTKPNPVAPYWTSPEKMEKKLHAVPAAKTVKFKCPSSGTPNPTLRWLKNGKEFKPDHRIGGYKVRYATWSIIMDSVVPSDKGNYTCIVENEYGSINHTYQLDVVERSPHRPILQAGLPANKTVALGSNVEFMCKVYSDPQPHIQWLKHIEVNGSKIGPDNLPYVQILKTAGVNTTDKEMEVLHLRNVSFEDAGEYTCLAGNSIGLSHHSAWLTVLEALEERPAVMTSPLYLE

T5: hFGFR3-Fc (IIIb) (human, UniProt P22607-2 23-377, biotinylated with biotin-LC-NHS)
T5 construct: Bought, R&D Systems 1264-FR
T5 sequence (looked up): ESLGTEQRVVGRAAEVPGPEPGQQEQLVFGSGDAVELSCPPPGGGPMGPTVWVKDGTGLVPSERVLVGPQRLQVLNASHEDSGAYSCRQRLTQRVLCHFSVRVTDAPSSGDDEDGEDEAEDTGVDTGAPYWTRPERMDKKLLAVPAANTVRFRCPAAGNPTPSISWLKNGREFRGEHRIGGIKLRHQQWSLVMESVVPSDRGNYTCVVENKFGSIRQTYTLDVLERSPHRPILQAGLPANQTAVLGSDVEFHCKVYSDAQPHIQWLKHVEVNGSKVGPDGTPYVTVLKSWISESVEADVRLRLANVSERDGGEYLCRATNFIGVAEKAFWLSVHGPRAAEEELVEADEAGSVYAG


Legend:
mFGFR2β-Fc (IIIb) = target: T6, mFGFR2β-Fc (IIIb) (murine, UniProt P21803-2 22-263, limits assumed, biotinylated with biotin-LC-NHS); test: ELISA, 1 ug/ml Fab on coated antigen; grade of signal to background (+ 2-3, ++ 3-5, +++ >5)
T6 construct: Bought, R&D Systems 708-MF
Method: (§1) For the ELISA 96-well plates pre-coated with streptavidin (Pierce, 15500) were coated over night at 4° C. with 1 μg/ml biotinylated protein. Wells coated with biotinylated TRAIL-Fc served as a reference. The next day plates were washed 3 times with PBST, treated with blocking reagent, and washed again 3 times with PBST. 100 μl of purified Fabs (1 μg/ml) were added and incubated for 1 h at r.t. After washing 3 times with PBST, an anti-hIgG (Fab-specific) coupled to HRP (1:2500 diluted; Sigma; A 0293) was added and incubated for 1 h at Lt. Color reaction was developed by addition of 50 μl TMB (Invitrogen, 2023) and stopped after 5-15 min by adding 50 μl H₂SO₄ (Merck, 1120801000). Colorimetric reaction was recorded at […] in a plate reader (Tecan). Wells containing TRAIL-Fc were used as background values and the signal to background ratios were calculated as summarized in Table 4.

hFGFR2α-Fc (IIIb) = target: T1, hFGFR2α-Fc (IIIb); test: as above
Method: as §1

hFGFR2β-Fc (IIIb) = target: T2, hFGFR2β-Fc (IIIb); test: as above
Method: as §1

hFGFR4-Fc = target: T3, hFGFR4-Fc; test: ELISA on coated biotinylated Fc fusion
Method: as §1

hFGFR1β-Fc (IIIc) = target: T4, hFGFR1β-Fc (IIIc); test: ELISA on coated biotinylated Fc fusion
Method: as §1

hFGFR3-Fc (IIIb) = target: T5, hFGFR3-Fc (IIIb); test: ELISA on coated biotinylated Fc fusion
Method: as §1

[1] = target: T7, recombinant human FGFR2 (Met 1-Glu 377) with C-terminal polyhistidine tag (human, UniProt P21802 22-377); test: protein binding ELISA, antibody captured by anti-human IgG Fc, FGFR2-His titrated
T7 construct: The range is that of the expressed DNA and begins at Met 1; also called His-tagged FGFR2; recombinant human FGFR2-IIIc molecule
Excerpt: (§2) Two different types of ELISA were used to determine the binding improvement of mutated variants: a) Peptide Binding ELISA: a synthetic peptide comprising the amino acid sequence of the epitope linked C-terminally to a biotinylated lysine […]-Ttds-Lys(Biotin) (peptide sequence derived from SEQ ID NO:63, synthesized by JPT Peptide Technology GmbH, Berlin, Germany), and b) Recombinant Protein Binding ELISA: recombinant human FGFR2 (DNA sequence of human FGFR2 (NP 000132.3) Met 1-Glu 377, fused with a polyhistidine tag at the C-terminus; #10824-1-1081-1, Sin θ Biological Inc., Beijing, China).
(§3) Briefly, in both ELISA formats MTP plates (384 well Maxisorp, Nunc) were coated with 20 μl, anti-human IgG Fc specific (#12136; sigma) at 2.2 μg/ml for 2.5 h at 37° C. in coating buffer (#121125 Candor Bioscience GmbH). […] Anti-FGFR2 variants were immobilized in concentrations of 0.035 μg/ml (peptide based assay) or 0.2 μg/ml (recombinant human FGFR2 protein based assay) in 10% Smart Block in PBST depending on the format and variants to be analyzed by incubation of 20 μl for one hour at 20-22° C. After one washing step using 50 μl PBST, 20 μl quadruplets of the antigen dilution series in 10% SmartBlock in PBST with a maximum concentration of 100 nM were added and incubated for 1 h at 20-22° C. and the washing step was repeated 3 times. For the detection of the biotinylated epitope peptide 20 μl of streptavidine/POD conjugate (# S5512, Sigma) in a 1:1000 dilution in 10% SmartBlock in PBST were applied for one hour at 20-22° C. For the detection of the recombinant FGFR2 protein 20 μl of anti-His/HRP conjugate (#71840, novagen) in a 1:10000 dilution in 10% SmartBlock in PBST were applied for one hour at 20-22° C. After 3 washing steps 20 μl of 10 μM amplex red substrate (# A12222, Invitrogen) in 50 mM Sodium hydrogen phosphate, pH 7.6, were added and the fluorescence signal was detected using a common fluorescence reader, e.g. Tecan M1000. EC50 values were evaluated by fitting the data (Sigmoida) dose-response, variable slope, bottom set to background; GraphPad Prism software).

[2] = target: T7, recombinant human FGFR2 (Met 1-Glu 377) …; test: protein binding ELISA; against TPP-1415
Excerpt: as §2, §3

T6 sequence (P21803 other isoform, or with tags, fused parts or gaps limits assumed): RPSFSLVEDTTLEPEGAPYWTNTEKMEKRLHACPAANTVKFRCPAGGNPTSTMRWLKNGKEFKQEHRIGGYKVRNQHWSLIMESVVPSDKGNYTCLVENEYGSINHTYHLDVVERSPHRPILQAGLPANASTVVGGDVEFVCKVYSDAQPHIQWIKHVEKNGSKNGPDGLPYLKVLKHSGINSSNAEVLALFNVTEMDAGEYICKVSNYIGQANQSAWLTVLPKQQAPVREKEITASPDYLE

Binder	ELISA signal to background ratio (mFGFR2β-Fc (IIIb))	ELISA signal to background ratio (hFGFR2α-Fc (IIIb))	ELISA signal to background ratio (hFGFR2β-Fc (IIIb))	binding result (hFGFR4-Fc)	binding result (hFGFR1β-Fc (IIIc))	binding result (hFGFR3-Fc (IIIb))	EC50 [1]	fold EC50 reduction [2]
M048-D01 (soluble Fab) (Fab, V domains shown, Soluble Fab from E. coli, purified through its His-tag) VH: EVQLLESGGGLVQPGGSLRLSCAASGFTFSSYAMSWVRQAPGKGLEWVSAISGSGTSTYYADSVKGRFTISRDNSKNTLYLQMNSLRAEDTAVYYCARVRYNWNHGDWFDPWGQGTLVTVSS VL: QSVLTQPPSASGTPGQRVTISCSGSSSNIGNNYVSWYQQLPGTAPKLLIYENYNRPAGVPDRFSGSKSGTSASLAISGLRSEDEADYYCSSWDDSLNYWVFGGGTKLTVL	> 5 ratio	> 5 ratio	> 5 ratio	no binding	no binding	no binding		
M021-H02 (soluble Fab) (Fab, V domains shown, Soluble Fab from E. coli, purified through its His-tag) VH: EVQLLESGGGLVQPGGSLRLSCAASGFTFSNYGIHWVRQAPGKGLEWVAVISYDGSNKYYADSVKGRFTISRDNSKNTLYLQMNSLRAEDTAMYYCARDSSSAEDYWGQGTLVTVSS VL: QSVLTQPPSASGTPGQRVTISCSGSSSNTGSNTVNWYQQLPGTAPKLLIYRNNQRPSGVPDRFSGSKSGTSASLAISGLRSEDEADYYCETWDSNTRGVVFGGGTKLTVL	> 5 ratio	> 5 ratio	> 5 ratio	no binding	no binding	no binding		
TPP-1406 (antibody, human IgG1, lambda, V domains shown, Matured variant of M047-D08) VH: EVQLLESGGGLVQPGGSLRLSCAASGFTFSHSGMHWVRQAPGKGLEWVAVISYDGSNKYYADSVKGRFTISRDNSKNTLYLQMNSLRAEDTAVYYCAREQPLYDFEYWGQGTLVTVSS VL: AQSVLTQPPSASGTPGQRVTISCSGSSSNIGDNGVNWYQQLPGTAPKLLIYGASERPSGVPDRFSGSKSGTSASLAISGLRSEDEADYYCAAWDDSLDGWTFGGGTKLTVLG							0.22 nM	37 fold
TPP-1407 (antibody, human IgG1, lambda, V domains shown, Matured variant of M047-D08) VH: EVQLLESGGGLVQPGGSLRLSCAASGFTFSHSGMHWVRQAPGKGLEWVAVISYDGSNKYYADSVKGRFTISRDNSKNTLYLQMNSLRAEDTAVYYCAREQPLYDFEYWGQGTLVTVSS VL: not shown							0.23 nM	35 fold
TPP-1409 (antibody, human IgG1, lambda, V domains shown, Matured variant of M047-D08) VH: EVQLLESGGGLVQPGGSLRLSCAASGFTFSTSGMHWVRQAPGKGLEWVAVISYDGSNKYYADSVKGRFTISRDNSKNTLYLQMNSLRAEDTAVYYCARESPGYDFEYWGQGTLVTVSS VL: not shown							2.1 nM	3.8 fold
TPP-1410 (antibody, human IgG1, lambda, V domains shown, Matured variant of M047-D08) VH: EVQLLESGGGLVQPGGSLRLSCAASGFTFSHSGMHWVRQAPGKGLEWVAVISYDGSNKYYADSVKGRFTISRDNSKNTLYLQMNSLRAEDTAVYYCAREAPGYDFEYWGQGTLVTVSS VL: not shown							0.66 nM	12 fold
TPP-1411 (antibody, human IgG1, lambda, V domains shown, Matured variant of M047-D08) VH: EVQLLESGGGLVQPGGSMRLSCAASGFTFSSSGMHWVRQAPGKGLEWVAVISYDGSNKYYADSVKGRFTISRDNSKNTLYLQMNSLRAEDTAVYYCAREQPGYDFEYWGQGTLVTVSS VL: not shown							0.61 nM	13 fold
TPP-1412 (antibody, human IgG1, lambda, V domains shown, Matured variant of M047-D08) VH: EVQLLESGGGLVQPGGSLRLSCAASGFTFSHSGMHWVRQAPGKGLEWVAVISYDGSNKYYADSVKGRFTISRDNSKNTLYLQMNSLRAEDTAVYYCAREAPLYDFEYWGQGTLVTVSS VL: not shown							0.29 nM	28 fold
M054-A05 (soluble Fab) (Fab, V domains shown, Soluble Fab from E. coli, purified through its His-tag) VH: EVQLLESGGGLVQPGGSLRLSCAASGFTFSNYGMYWVRQAPGKGLEWVAVISYDGTNKYYVDSVKGRFTISRDNSKNTLYLQMNSLRAEDTAVYYCAKDLPKWGGFDSWGQGTLVTVSS VL: not shown	> 5 ratio	> 5 ratio	3 to 5 ratio	no binding	no binding	no binding		
